Data as given in US20150056222A1 (Regeneron, published 2015).

T1: mouse PRLR on HEK293 cells (mouse, UniProt Q08501 20-608)
T1 construct: whole, on cells; also called mPRLR; HEK293/mPRLR
T1 sequence (looked up): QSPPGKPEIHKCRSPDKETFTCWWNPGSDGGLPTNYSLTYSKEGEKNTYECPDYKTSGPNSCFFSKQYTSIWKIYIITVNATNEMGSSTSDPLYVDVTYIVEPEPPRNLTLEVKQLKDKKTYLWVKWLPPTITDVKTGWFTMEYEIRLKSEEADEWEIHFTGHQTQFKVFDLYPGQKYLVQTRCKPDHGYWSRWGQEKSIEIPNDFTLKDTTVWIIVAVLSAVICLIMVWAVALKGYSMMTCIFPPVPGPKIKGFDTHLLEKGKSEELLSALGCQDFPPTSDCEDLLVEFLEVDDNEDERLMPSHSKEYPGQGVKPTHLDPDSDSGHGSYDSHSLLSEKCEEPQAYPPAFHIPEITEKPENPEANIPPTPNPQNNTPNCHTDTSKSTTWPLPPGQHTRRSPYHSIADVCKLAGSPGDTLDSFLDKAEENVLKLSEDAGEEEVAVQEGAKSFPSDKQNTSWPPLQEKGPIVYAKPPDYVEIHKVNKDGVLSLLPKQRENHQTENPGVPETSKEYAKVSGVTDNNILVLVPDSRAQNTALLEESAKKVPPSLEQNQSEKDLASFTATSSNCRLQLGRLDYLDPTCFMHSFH

T2: mfPRLR.mmh (soluble monomeric macaca fascicularis PRLR) (macaca fascicularis)
T2 construct: soluble monomeric construct; also called macaca fascicularis (mf) PRLR.mmh
T2 chain: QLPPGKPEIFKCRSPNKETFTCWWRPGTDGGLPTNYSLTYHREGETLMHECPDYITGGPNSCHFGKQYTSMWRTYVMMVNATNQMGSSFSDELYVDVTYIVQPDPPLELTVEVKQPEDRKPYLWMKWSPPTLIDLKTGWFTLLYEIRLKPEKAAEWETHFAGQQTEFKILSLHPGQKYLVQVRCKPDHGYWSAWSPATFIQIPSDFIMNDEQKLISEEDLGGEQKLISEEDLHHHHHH

T3: hPRLR.mFc (soluble dimeric human PRLR) (human)
T3 construct: dimeric construct
T3 chain: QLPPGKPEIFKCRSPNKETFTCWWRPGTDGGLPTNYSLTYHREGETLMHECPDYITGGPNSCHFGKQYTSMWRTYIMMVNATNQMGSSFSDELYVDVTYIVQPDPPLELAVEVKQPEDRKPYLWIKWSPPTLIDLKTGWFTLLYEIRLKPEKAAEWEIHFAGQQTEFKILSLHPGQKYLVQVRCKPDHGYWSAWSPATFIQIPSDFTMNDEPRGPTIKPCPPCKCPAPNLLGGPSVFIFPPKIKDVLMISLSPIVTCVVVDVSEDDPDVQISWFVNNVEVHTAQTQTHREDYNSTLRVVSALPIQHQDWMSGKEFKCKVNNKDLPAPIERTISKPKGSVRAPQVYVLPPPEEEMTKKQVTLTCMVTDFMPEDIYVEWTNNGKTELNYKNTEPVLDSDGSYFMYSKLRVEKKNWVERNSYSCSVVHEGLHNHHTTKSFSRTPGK

T4: hPRLR.mmh (soluble monomeric human PRLR) (human)
T4 construct: soluble monomeric construct
T4 chain: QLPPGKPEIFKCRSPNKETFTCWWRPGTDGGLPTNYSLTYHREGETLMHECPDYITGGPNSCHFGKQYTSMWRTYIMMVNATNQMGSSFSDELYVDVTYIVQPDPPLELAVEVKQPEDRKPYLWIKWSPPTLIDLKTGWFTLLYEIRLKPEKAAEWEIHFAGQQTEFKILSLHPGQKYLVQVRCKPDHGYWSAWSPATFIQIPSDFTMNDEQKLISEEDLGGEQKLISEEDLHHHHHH

T5: human prolactin receptor (PRLR) on cells (human, UniProt P16471 25-622)
T5 sequence: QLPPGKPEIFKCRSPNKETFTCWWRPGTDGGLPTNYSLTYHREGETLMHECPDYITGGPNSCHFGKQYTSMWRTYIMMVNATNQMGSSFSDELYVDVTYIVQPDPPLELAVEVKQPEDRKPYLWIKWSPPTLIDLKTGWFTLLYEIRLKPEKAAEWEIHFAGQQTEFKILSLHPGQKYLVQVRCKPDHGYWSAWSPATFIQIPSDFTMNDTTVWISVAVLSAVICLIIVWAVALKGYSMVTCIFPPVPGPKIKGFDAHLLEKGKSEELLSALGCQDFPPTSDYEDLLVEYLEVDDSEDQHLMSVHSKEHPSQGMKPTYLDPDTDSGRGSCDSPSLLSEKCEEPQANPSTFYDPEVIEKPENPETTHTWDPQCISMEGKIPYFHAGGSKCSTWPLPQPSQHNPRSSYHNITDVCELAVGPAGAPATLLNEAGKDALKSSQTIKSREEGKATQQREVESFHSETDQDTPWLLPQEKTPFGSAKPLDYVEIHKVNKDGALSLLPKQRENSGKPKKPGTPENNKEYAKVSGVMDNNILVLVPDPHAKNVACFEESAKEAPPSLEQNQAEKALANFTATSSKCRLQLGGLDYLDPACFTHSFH

T6: monkey (macaca fascicularis) PRLR on HEK293 cells (macaca fascicularis, UniProt A0A2K5WXK1 25-619)
T6 construct: also called mfPRLR; HEK293/mfPRLR
T6 sequence: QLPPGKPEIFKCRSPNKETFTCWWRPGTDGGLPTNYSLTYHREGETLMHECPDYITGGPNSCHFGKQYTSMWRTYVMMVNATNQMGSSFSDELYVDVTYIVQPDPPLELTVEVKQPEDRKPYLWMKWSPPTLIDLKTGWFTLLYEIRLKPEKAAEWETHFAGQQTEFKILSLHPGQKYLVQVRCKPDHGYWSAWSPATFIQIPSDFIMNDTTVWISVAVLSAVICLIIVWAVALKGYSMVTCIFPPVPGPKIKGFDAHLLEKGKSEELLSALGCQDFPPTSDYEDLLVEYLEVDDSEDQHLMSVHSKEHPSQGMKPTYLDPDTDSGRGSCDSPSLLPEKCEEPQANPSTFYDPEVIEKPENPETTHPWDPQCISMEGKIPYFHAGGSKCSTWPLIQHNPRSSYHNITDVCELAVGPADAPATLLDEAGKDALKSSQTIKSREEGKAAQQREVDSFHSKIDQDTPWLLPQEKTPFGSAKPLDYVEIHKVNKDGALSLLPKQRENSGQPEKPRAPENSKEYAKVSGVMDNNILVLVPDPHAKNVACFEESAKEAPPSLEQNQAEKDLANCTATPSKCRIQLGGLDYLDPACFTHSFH


Columns and labels:
[1] = molecular target: T1, mouse PRLR on HEK293 cells; test: FACS, HEK293/mPRLR cells; note: test concentration or dose not given here
[2] = molecular target: T2, mfPRLR.mmh (soluble monomeric macaca …); test: SPR, 37C, mAb capture
Protocol: (§1) Measurements were conducted on a T200 Biacore instrument. Kinetic association (kₐ) and dissociation (kd) rate constants were determined by processing and fitting the data to a 1:1 binding model using Scrubber 2.0 curve fitting software. Binding dissociation equilibrium constants (KD) and dissociative half-lives (t_{1/2}) were calculated from the kinetic rate constants as: KD (M)=kd/kₐ; and […].

[3] = molecular target: T3, hPRLR.mFc (soluble dimeric human PRLR); test: SPR, 37C, mAb capture
Protocol: as §1

[4] = molecular target: T4, hPRLR.mmh (soluble monomeric human PRLR); test: SPR, 37C, mAb capture
Protocol: as §1

[5] = molecular target: T5, human prolactin receptor (PRLR) on cells; test: cell-based or functional assay
[6] = molecular target: T5, human prolactin receptor (PRLR) on cells; test: FACS, T47D cells (native PRLR); note: test concentration or dose not given here
[7] = molecular target: T5, human prolactin receptor (PRLR) on cells; test: FACS, HEK293/hPRLR cells; note: test concentration or dose not given here
[8] = molecular target: T6, monkey (macaca fascicularis) PRLR on …; test: FACS, HEK293/mfPRLR cells; note: test concentration or dose not given here

Row | FACS Cell Binding (Fold Above Background) [1] [fold above background] | T½ [2] [min] | T½ [3] [min] | T½ [4] [min] | % Internalization relative to Control I (alexa488 intensity in intracellular vesicles at 37 C, T47D cells) [5] [%] | FACS Cell Binding (Fold Above Background) [6] [fold above background] | FACS Cell Binding (Fold Above Background) [7] [fold above background] | FACS Cell Binding (Fold Above Background) [8] [fold above background] | Binder
1 | 2 | 21 | 112 | 25 | 186 | 38 | 36 | 26 | H1H6762P (antibody, human IgG1, V domains shown, human IgG1 Fc (H1H)) VH: QVQLVESGGGVVQPGRSLRLSCAASGFTFSHYGMVWVRQPPGKGLEWVALISFDGTTKYYADSVKGRFTISRDNSKNTLYLQMNSLRAEDTAVYFCVGAIAAAAFDLWGRGTLVTVSS VL: EIVMTQSPATLSVSPGERATLSCRASQSVSSDLAWYQQKPGQAPRLLIYSASARATGIPARFTGSGSGTDFTLTISSLQSEDFAVYYCQQYNNWPMYTFGQGTKLEIK
2 | 1 | 18 | 186 | 32 | 190 | 39 | 39 | 28 | H1H6803P (antibody, human IgG1, V domains shown, human IgG1 Fc (H1H)) VH: EVQLVESGGGVVRPGGSLRLSCAASGFKFDDYGMTWVRHVPGKGLEWVSGINWNGGRTGYTDSVKGRFTISRDNAKNSLYLQMNSLRAEDTALYHCAGARRDAFDIWGQGTMVTVSS VL: DIQMTQSPSSLSASIGDRVTITCRASQNIIKYLNWYQQNAGKAPKLLIYTASSLQSGVPSRFSGSGSGTDFTLTISSLQPEDFATYYCQQSSSSPYTFGQGTKLEIK
3 | 1 | 11 | 79 | 10 | 198 | 41 | 35 | 29 | H1H6800P (antibody, human IgG1, V domains shown, human IgG1 Fc (H1H)) VH: EVQLVESGGGLVQPGRSLRLSCAASGFTFDGYAMHWVRQGPGKGLEWVSGISWYSDTLGYADSVKGRFTISRDNAKNSLYLQMNSLRTEDTAFYYCAKISSSGWAFDYWGQGTLVTVSS VL: EIVLTQSPGTLSLSPGERATLSCRASHSVSSAYLAWYQQKPGQTPRLLIYGTSSRATGIPDRFSGSGSGTDFTLTISRLEPEDFAVYYCQQYGSSPLFTFGPGTKVDIK
4 | – | 1 | 52 | 3 | 149 | 45 | 47 | 88 | H1H6801P (antibody, human IgG1, V domains shown, human IgG1 Fc (H1H)) VH: QVQLQQSGPGLVKPSQTLSLTCVISGDSVSSNTAWNWVRQSPSRGLEWLGRTYYRSKWYNDYAVSVKSRITINPDTSKNQFSLLMNSVTPEDTAVYYCARVVRGLNYFDYWGQGTLVTVSS VL: DIVMTQSPDSLAVSLGERATINCKSSQSVLYNSNNKNYLAWYQQKPGQPPKLLIYWSSSRESGVPDRFSGSGSGTDFTLTISGLQAEDVAIYYCQQYSTIPYTFGQGTKLEIK
5 | 1 | 36.4 | 163 | 42.3 | 214 | 46 | 38 | 29 | H1H6975N (antibody, human IgG1, V domains shown, also called H2M6975N) VH: EVHLVESGGGLVQPGGSLRLSCAASGFTFSSYEMNWVRQTPGKGLEWISHISSRSVIIYYADSVKGRFTISRDNAKNSLFLQMNSLRAEDTAVYFCAGITIFGIPEYWGQGTLVTVSS VL: EIVLTQSPATLSLSPGERATLSCRASQSVSSYFAWYQQKPGQAPRLLIYDASSRATGIPTRFSGSGSGTDFTLTISSLEPEDFAVYYCQQRSSWPITFGQGTRLEIK
6 | 2 | – | 5 | 0.4 | 15.3 | 9 | 6 | 11 | H1H6959N2 (antibody, human IgG1, V domains shown, also called H2M6959N2) VH: EVQLVESGGGLVQPGRSLRLSCAASGFTFDDYAMHWVRQAPGKGLEWVSGISWHSGIIGYADSVKGRFTISRDNAKNSLYLQMNSLRTEDAALYYCAKIGSYFYFDSWGQGTLVTVSS VL: EIVLTQSPGTLSLSPGERATLSCRASQSVSSNYLAWYQQKPGQAPRLLIYGASSRATGIPDRFSGSGSGTDFTLTISRLEPEDFAVYYCQQFGSSGYTFGQGTNLEIK
